Assay results taken from the supplement of paper PMC9170038.

System: MS2 coat protein
Assay: apparent KD of MS2 coat protein; designed switch direction (-1 OFF switch, 1 ON switch): -1; higher = weaker reporter binding
Procedure, shortened: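 Stalled E. coli RNA polymerase transcribed designed RNA switches on Illumina chips, which were then titrated with SNAP-549-labelled MS2 coat protein, doubling from 0.7 or 1.5 nM to 3 µM. Steps lasted from 0.8–1.5 h at the lowest concentration to 10–20 min at the highest. The apparent KD is each design's median over clusters of curve-fitted normalised fluorescence.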

[1] = Eterna round: R95, input ligand: FMN 200 uM
[2] = Eterna round: R95, input ligand: microRNA oligo, concentration not stated
[3] = Eterna round: R95, input ligand: none
[4] = input ligand: microRNA oligo, concentration not stated

| Sequence | apparent KD of MS2 coat protein [1] [nM] | apparent KD of MS2 coat protein [2] [nM] | apparent KD of MS2 coat protein [3] [nM] | apparent KD of MS2 coat protein (input ligand: FMN 200 uM) [nM] | apparent KD of MS2 coat protein [4] [nM] | apparent KD of MS2 coat protein (input ligand: none) [nM] |
| --- | --- | --- | --- | --- | --- | --- |
| UCAUGUUUAGAGGAUAUGAUUACUCUAGAGUGAUCAGAAGGCUAGACAUGAGGAUCACCCAUGUCAGAACAUGG [Exclusion 6 - B - 17:c] (puzzle: Exclusion 6) | 27.5 | 21.5 | 29.1 |  |  |  |
| UCAUGUUUAGAGGAUAUGAUUACUCUAGAGUGAUCAGAAGGCUAGACAUGAGGAUCACCCAUGUCAUAACAUGA [Exclusion 6 - B - 16:a] (puzzle: Exclusion 6) | 56.3 | 85.7 | 127 |  |  |  |
| UCAUGUUUAGAGGAUAUGAUUACUUUUGAGUAAUCAGAAGGCUAGACAUGAGGAUCACCCAUGUCAUAACAUGA [Exclusion 6 - B - 15:d] (Eterna round: R96, puzzle: Exclusion 6) |  |  |  | 341 | 75.9 | 242 |
| UCAUGUUUAGAGGAUAUGAUUACUUUUGAGUAAUCAGAAGGCUAGACAUGAGGAUCACCCAUGUCAUAACAUGA [Exclusion 6 - B - 15:d] (puzzle: Exclusion 6) |  | 71.5 |  |  |  |  |
| UCCAAGUUUGUAGGAUAUACUCUCCUUUGGAGAGUAGAAGGACAUGAGGAUCACCCAUGUUGUAUAAAUUUGGGAUGUUCCUCG [random3] (Eterna round: R96, puzzle: Exclusion NG 1) |  |  |  | 122 | 51.3 | 91.8 |
| UCCACAUGAGGAUCACCCAUGUAAGGUGAGUAAAAGAAGAGGCAGGAUAUUGAAGCGACCUCGCCCAAGAAGGGCCUCACCAAA [Eternabot solution 11] (Eterna round: R96, puzzle: Exclusion NG 3) |  |  |  | 72.2 | 44.8 | 60.6 |
| UCCCAGCUAGGAUAUACAUGAGGAUCACCCAUGUCGAUCCACGGCACCCGAGUAUUGAGUAGAAGGAGUCAGGA [Eternabot (L2) Solution 69] (Eterna round: R97, puzzle: Exclusion 3) |  |  |  | 25.1 |  | 23.1 |
| UCCUCACAUGAGGAUCACCCAUGUUAGGAUAUCUUAUAGAGCUUGAGACAGUUCUUUAAGAGAAGGAACUGGGC [Exclusion 1 (MOD2.2 of Edarti)] (Eterna round: R97, puzzle: Exclusion 1) |  |  |  | 120 |  | 115 |
| UCCUCACAUGAGGAUCACCCAUGUUAGGAUAUUUAAUAGCGCGAAAGACAGUUCUGUAAGAGAAGGAACUGGGC [Edarti] (Eterna round: R97, puzzle: Exclusion 1) |  |  |  | 14.6 |  | 15 |
| UCCUCACUUGAGGAUCACCCAAGUCAGGAUAUUCACUGAACUGCGUAGCAGUUCGGCCGAAGAAGGGAUUCGGG [Lacequla] (Eterna round: R97, puzzle: Exclusion 1) |  |  |  | 54.8 |  | 107 |
| UCCUCGUCAGGAUAUCCACGGAAUAGCGGGAUACCGAGCGUGGAGAAGGGACAUGAGGAUCACCCAUGUAAAAU [Edlare] (puzzle: Exclusion 4) |  | 24.9 |  |  |  |  |
| UCCUUACUGGUCAGGAUAUACAGUCGCGGGUGGGUGUAGAAGGGACAUGAGGAUCACCCAUGUACGUUACAUCC [alecazam54h] (Eterna round: R97, puzzle: Brourd's mod of Exclusion 4) |  |  |  | 19.7 |  | 19.9 |
| UCGACGUCGUCAGGAUAUAGUUUUAAUGUCAUGCUUUUGUUCGUACAUGAGGAUCACCCAUGUGGCUAGAAGGGACUAAAGAUU [JR_ExcNG2_Sub014] (Eterna round: R96, puzzle: Exclusion NG 2) |  |  |  | 22.9 | 27 | 18.8 |
| UCGCUCCGUGUAGGAUAUCGCCGUUCCACUCGGCGAGAAGGACAUGAGGAUCACCCAUGUAUGUUAUUAUCACGUGUGGCGCGC [Design 53] (Eterna round: R96, puzzle: Exclusion NG 1) |  |  |  | 32 | 16.5 | 18.1 |
| UCGCUCCGUGUAGGAUAUCGCCGUUCUACUCGGCGAGAAGGACAUGAGGAUCACCCAUGUAUGUUAUUAUCACGUGUGGCGCGC [Design 54] (Eterna round: R96, puzzle: Exclusion NG 1) |  |  |  |  | 14.2 |  |
